Source: patent US20210060185A1

Biological target: dGvpC (Ana GvpC with SG-… at the C-terminus, encoded in the acoustic sensor gene for ClpXP) (Anabaena flos-aquae) (UniProt P09413)
Test: cell-based or functional assay

Sequence of dGvpC (Ana GvpC with SG-… at the C-terminus, encoded in the acoustic sensor gene for ClpXP) (Anabaena flos-aquae) (P09413 1-193, tags or fused parts left off): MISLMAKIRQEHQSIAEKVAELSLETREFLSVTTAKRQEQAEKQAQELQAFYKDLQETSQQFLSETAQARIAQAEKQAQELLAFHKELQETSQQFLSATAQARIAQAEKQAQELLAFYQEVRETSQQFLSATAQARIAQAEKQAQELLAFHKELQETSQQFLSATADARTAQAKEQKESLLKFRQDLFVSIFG

## ClpXP of E. coli Nissle 1917 (native, or ClpX and ClpP cloned from the Nissle genome under the pBAD promoter) (from UniProt P0A6H1 2-424; P0A6G7 15-207) (enzyme)
  hydrostatic collapse pressure midpoint of intact WT Nissle cells, ASGClpXP against ARGWT: 160 kPa
  hydrostatic collapse pressure midpoint of ΔClpXP Nissle cells with against without ClpXP induction: 160 kPa
  nonlinear ultrasound contrast of live WT Nissle cells, ASGClpXP against ARGWT: 13 dB
  nonlinear ultrasound contrast of ΔClpXP Nissle cells with against without ClpXP induction: 6.7 dB
